Laboratory results published in publication PMC12888920, “MMP-9 regulates disulphide isomerase activity of TGM2 to enhance fusion glycoprotein-mediated syncytium formation of respiratory syncytial virus” (Protein & Cell, 2025).

Experiments:
[1] = molecular target: purified human MMP-9 (human) (UniProt P14780); assay: BLI; ForteBio Octet; who was immobilised and buffer not told in the text shown; three biological replicates
[2] = molecular target: DS-Cav1 (RSV F prefusion conformation) (respiratory syncytial virus (strain not stated)) (UniProt P03420); assay: as above

Sequence of purified human MMP-9 (human) (P14780 20-707): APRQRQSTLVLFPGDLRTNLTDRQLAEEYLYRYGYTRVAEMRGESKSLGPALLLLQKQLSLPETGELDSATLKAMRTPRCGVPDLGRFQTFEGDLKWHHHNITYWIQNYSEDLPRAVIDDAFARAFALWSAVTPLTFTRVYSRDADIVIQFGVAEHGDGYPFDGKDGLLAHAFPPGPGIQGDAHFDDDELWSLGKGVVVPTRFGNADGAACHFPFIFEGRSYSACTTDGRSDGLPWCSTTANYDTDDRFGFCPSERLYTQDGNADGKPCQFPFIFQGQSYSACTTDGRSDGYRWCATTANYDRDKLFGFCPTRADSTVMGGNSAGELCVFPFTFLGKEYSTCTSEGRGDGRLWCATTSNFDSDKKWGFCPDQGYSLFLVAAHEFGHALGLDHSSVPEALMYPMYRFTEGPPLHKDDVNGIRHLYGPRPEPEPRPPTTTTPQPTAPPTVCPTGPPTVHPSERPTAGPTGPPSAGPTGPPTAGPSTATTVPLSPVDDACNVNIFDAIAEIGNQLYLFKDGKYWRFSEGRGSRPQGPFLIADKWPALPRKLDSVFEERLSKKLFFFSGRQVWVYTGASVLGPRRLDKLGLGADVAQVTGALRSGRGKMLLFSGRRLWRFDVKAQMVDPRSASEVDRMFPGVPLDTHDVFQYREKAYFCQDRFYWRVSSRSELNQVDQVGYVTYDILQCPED
Sequence of purified human TGM2 (transglutaminase 2) (P21980 whole entry): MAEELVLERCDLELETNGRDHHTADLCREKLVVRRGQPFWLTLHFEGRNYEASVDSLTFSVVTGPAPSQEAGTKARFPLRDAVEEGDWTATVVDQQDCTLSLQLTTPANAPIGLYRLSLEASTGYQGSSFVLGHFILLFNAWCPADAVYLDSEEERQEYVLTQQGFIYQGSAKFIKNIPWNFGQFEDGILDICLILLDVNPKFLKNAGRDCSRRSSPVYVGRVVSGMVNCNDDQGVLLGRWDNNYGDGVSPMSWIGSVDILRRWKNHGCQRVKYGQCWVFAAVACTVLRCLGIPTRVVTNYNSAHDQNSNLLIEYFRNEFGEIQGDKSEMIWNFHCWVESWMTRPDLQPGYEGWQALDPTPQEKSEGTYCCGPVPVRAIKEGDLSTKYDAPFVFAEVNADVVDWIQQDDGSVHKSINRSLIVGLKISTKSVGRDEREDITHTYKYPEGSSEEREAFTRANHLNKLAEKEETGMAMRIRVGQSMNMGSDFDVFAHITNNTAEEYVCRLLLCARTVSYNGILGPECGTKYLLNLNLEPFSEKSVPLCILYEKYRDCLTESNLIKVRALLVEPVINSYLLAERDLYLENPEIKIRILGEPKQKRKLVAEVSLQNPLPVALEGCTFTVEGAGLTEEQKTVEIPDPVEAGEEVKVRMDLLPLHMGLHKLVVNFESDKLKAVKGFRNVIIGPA

“DS-Cav1 (RSV F prefusion conformation) (from UniProt P03420 26-574) (natural protein)” showed a Kd [1] of 0.146 µM.
Substance “purified human TGM2 (transglutaminase 2) (from UniProt P21980 1-687) (enzyme)” has a Kd [2] of 6.31 µM.
